B1: fragment of APPL (aa 489-639) identified in the yeast two-hybrid screen (other)
chain: TKSETEDSILHQLFIVRFLGSMEVKSDDHPDVVYETMRQILAARAIHNIFRMTESHLLVTCDCLKLIDPQTQVTRLTFPLPCVVLYATHQENKRLFGFVLRTSSGRSESNLSSVCYIFESNNEGEKICDSVGLAKQIALHAELDRRASEKQ
notes: Prey from a human brain cDNA library; The fragment fully overlaps the PTB domain (aa 500-634); also called APPL-PTB; fragment of DIP13alpha
B2: V5-APPL (full length APPL protein) (other, not shown: small tags and cut ends)
chain: MPGIDKLPIEETLEDSPQTRSLLGVFEEDATAISNYMNQLYQAMHRIYDAQNELSAATHLTSKLLKEYEKQRFPLGGDDEVMSSTLQQFSKVIDELSSCHAVLSTQLADAMMFPITQFKERDLKEILTLKEVFQIASNDHDAAINRYSRLSKKRENDKVKYEVTEDVYTSRKKQHQTMMHYFCALNTLQYKKKIALLEPLLGYMQAQISFFKMGSENLNEQLEEFLANIGTSVQNVRREMDSDIETMQQTIEDLEVASDPLYVPDPDPTKFPVNRNLTRKAGYLNARNKTGLVSSTWDRQFYFTQGGNLMSQARGDVAGGLAMDIDNCSVMAVDCEDRRYCFQITSFDGKKSSILQAESKKDHEEWICTINNISKQIYLSENPEETAARVNQSALEAVTPSPSFQQRHESLRPAAGQSRPPTARTSSSGSLGSESTNLAALSLDSLVAPDTPIQFDIISPVCEDQPGQAKAFGQGGRRTNPFGESGGSTKSETEDSILHQLFIVRFLGSMEVKSDDHPDVVYETMRQILAARAIHNIFRMTESHLLVTCDCLKLIDPQTQVTRLTFPLPCVVLYATHQENKRLFGFVLRTSSGRSESNLSSVCYIFESNNEGEKICDSVGLAKQIALHAELDRRASEKQKEIERVKEKQQKELNKQKQIEKDLEEQSRLIAASSRPNQASSEGQFVVLSSSQSEESDLGEGGKKRESEA

Key:
[1] = target: T1, full length HDAC1 (yeast two-hybrid bait) (Homo sapiens (Human), UniProt Q13547 1-482); assay: yeast two-hybrid screen
T1 construct: also called histone deacetylase 1

HDAC1-flag = HDAC1-flag (Homo sapiens (Human), UniProt Q13547 1-482); assay: cell-based or functional assay
Chain of HDAC1-flag (Q13547 whole entry): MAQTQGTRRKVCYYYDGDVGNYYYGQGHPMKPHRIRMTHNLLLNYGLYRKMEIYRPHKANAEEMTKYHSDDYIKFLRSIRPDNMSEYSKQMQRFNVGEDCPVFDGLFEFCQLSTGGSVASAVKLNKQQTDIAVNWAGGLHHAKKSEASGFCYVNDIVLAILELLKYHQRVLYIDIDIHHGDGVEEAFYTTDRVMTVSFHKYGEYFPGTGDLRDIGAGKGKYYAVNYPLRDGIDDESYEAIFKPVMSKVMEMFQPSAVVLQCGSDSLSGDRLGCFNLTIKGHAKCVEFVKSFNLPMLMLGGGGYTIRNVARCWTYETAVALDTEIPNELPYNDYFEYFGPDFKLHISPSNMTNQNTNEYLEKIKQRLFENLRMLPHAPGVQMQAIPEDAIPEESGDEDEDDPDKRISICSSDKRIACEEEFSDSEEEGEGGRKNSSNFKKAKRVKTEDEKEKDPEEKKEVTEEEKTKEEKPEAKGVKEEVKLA

T1 sequence (Q13547 whole entry): as above

Row | Binder | binding result [1] | HDAC1 activity: release of [3H]acetic acid from an [3H]acetyl-labeled histone H4 peptide by immunoprecipitated HDAC1 (HDAC1-flag)
1 | B1 | binds | 
2 | B2 |  | ~4 fold

Source: US20110077210A1 (published 2011)
